How the values were obtained:
[1] = target: Human TGF-β1 (acrobiosystems, TG1-H421) (human) (UniProt P01137); test: ELISA on coated human TGF-β1, anti-human Fc-HRP, absorbance at 450 nm (top panel)
[2] = target: biotinylated human PD-L1 protein (purchased from AcroBiosystems) (human) (UniProt Q9NZQ7); test: blocking assay by flow cytometry: PD-L1 protein pre-incubated with the sample, binding to human PD-1 on CHO-hPD-1 cells
[3] = target: human PD-L1 on CHO-hPD-L1 cells (human) (UniProt Q9NZQ7); test: flow cytometry on CHO cells overexpressing human PD-L1, median fluorescence intensity PE-A
[4] = target: Human TGF-β1 (acrobiosystems, TG1-H421) (human) (UniProt P01137)
[5] = target: Human TGF-β3 (PeproTech, 100-36E) (human) (UniProt P10600); test: ELISA on coated human TGF-β3, anti-human Fc-HRP, absorbance at 450 nm (bottom panel)
[6] = target: human PD-L1 on CHO-hPD-L1 cells (human) (UniProt Q9NZQ7); test: flow cytometry on CHO-hPD-L1 cells, PE anti-human IgG-Fc; table under the lower panel prints no unit, concentration axis is in nM

Sequence of Human TGF-β1 (acrobiosystems, TG1-H421) (human) (P01137 279-390 limits assumed): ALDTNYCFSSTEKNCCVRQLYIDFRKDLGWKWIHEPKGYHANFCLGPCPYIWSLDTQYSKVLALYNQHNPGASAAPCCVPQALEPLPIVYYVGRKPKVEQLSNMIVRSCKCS
Sequence of Human TGF-β3 (PeproTech, 100-36E) (human) (P10600 301-412 limits assumed): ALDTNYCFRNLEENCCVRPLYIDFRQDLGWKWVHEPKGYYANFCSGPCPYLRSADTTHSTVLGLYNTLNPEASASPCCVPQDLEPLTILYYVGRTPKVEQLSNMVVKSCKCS
Sequence of human PD-L1 on CHO-hPD-L1 cells (human) (Q9NZQ7 19-290): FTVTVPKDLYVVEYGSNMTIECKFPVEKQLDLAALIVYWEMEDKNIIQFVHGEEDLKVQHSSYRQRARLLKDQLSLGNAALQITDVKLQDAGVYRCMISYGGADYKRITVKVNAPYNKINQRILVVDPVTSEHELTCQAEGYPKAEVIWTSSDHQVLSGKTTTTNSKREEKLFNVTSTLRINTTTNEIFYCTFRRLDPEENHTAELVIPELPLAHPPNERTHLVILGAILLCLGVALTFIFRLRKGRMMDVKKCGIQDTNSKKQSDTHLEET
Sequence of biotinylated human PD-L1 protein (purchased from AcroBiosystems) (human) (Q9NZQ7 19-238 limits assumed): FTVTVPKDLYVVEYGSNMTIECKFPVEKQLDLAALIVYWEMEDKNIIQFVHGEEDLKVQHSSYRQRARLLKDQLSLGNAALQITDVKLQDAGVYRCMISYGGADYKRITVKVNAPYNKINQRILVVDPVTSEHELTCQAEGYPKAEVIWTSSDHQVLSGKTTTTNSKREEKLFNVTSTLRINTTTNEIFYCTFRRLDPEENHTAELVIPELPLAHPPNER

Substance	EC50 (read off the curve) [1] [pM]	IC50 (read off the curve) [2] [pM]	EC50 (read off the curve) [3] [pM]	IC50 (read off the curve) [4] [pM]	EC50 (read off the curve) [5] [pM]	EC50 [6] [pM]
M7824	1000	4000	3000	300	600	
TGF-βR2-Fc (Fc fusion)	800			400	600	
… (atezolizumab) (antibody)						2270
